From patent publication US12723255B2, “Herbicide tolerance genes and methods of use thereof” (priority 2014, dated 2026)
Where a chain is given by its changes, count along the chain named. Like-named read-outs stand apart in the source and are kept apart here.

Key:
[1] = kinetic analysis, non-endpoint assay at 23° C.; type: biochemical; details: for Vmax 2,4-D / Km / Vmax Quizalofop: Table 10 series, unit as defined
Text: For the fifth screen, recombinant protein for each of the eleven engineered proteins was produced and purified for an in-depth biochemical analysis. This biochemical analysis included: (1) kinetic analysis (Vmax and Km), (2) activity assays over a range of temperatures, (3) protein melting analysis, (4) activity on additional AOPP herbicides substrates, and (5) mass spectrometry analysis on peptides to confirm identity. The biochemical analyses were also done with purified recombinant wild-type protein and MON-HT55 protein for comparison. For the kinetic analysis, a non-endpoint assay was conducted at 23° C. with either quizalofop-P or 2,4-D as substrate. The recombinant proteins for these assays were produced in bacteria and purified using a 6-His tag fused at the C-terminal end of the protein. Results of the kinetic analysis with either quizalofop-P or 2,4-D as substrate are presented for ten of the engineered proteins, wild-type protein, and MON-HT55 protein in Table 7 (standard error is shown in parenthetical). Vmax is expressed as specific activity, umol herbicide product mg enzyme-1 min-1; Km expressed as mM herbicide substrate. […] The differentiation of the protein kinetics for MON-HTI and MON-HT7 were surprising because there are only four amino acid differences between MON-HT1 and MON-HT7. Specifically, MON-HT1 has the following amino acids at the indicated position: 182; F105; T112; and V273, and MON-HT7 has the following amino acids at the indicated position: L82; V105; S112; and A273.
Kinetic analysis using a non-endpoint assay was conducted at 23° C. with either quizalofop-P or 2,4-D as substrate, as detailed above for purified protein of the wild-type enzyme, MON-HT1, MON-HT13, MON-HT15, and MON-HT17.

[2] = type: physicochemical; details: Table 11 series
Experimental: A protein melting analysis was also conducted. For the protein melting determinations, purified enzyme was added to 96-well microtiter plates in standard storage buffer (30 mM Tris pH7.5, 150 mM NaCl) with or without 50 uM Fe2+ and 1.0 mM aKG. Protein unfolding was then detected with SYPRO® orange protein gel stain (Invitrogen™ catalog #S6651, Life Technologies, Grand Island, NY) in a BioRad CFX96™ Real time PCR machine (BioRad, Hercules, CA) with readings taken between 10° C. to 95° C. in 0.5° C. steps. […] In contrast, 50 uM Fe2+ and 1.0 mM aKG had little effect on the stability of any of the engineered proteins. MON-HT55, MON-HT3, MON-HT4, MON-HT6, and MON-HT10 had melting temperatures in the range of 41° C. to 48° C., which is below the melting temperature of the wild-type enzyme. MON-HT1, MON-HT2, MON-HT5, MON-HT7, MON-HT8, and MON-HT9 had melting temperatures between 58° C. and 67° C., which is 8° C. to 17° C. higher than the wild-type enzyme. For MON-HT7 and MON-HT1, the difference in melting point was 11° C. in buffer without Fe2+ and aKG and 8° C. in buffer with Fe2+ and aKG. This was surprising since there are only four amino acid differences between the two enzymes.
A protein melting analysis was conducted as detailed above. The melting temperatures of MON-HT13, MON-HT15, and MON-HT17 was similar to the melting temperature of MON-HT1 with T1/2 in buffer in the range of 55-58° C., and with T1/2 in buffer plus Fe2+ and aKG in the range of 60-62° C.

[3] = enzyme activity assay at 23° C. with purified enzyme; type: biochemical; details: for activity with fluroxypyr as the substrate / activity with triclopyr as the substrate: not robust enough to quantify; for MCPA Km / MCPA Vmax / Mecoprop Km: percentage of wild-type RdpA, set at 100%
Experimental: The enzyme activity of MON-HT protein variants with triclopyr, fluroxypyr, MCPA, MCPB, mecoprop, as substrates was determined using the enzyme activity assay conducted at 23° C. with purified enzyme. The activity was recorded as the maximum activity as a percentage of the wild-type RdpA enzyme's activity, which was set at 100%. […] The enzymatic activity with mecoprop as a substrate was reduced for each of the MON-HT1, MON-HT13, MON-HT15, and MON-HT17 variants compared to the wild-type RdpA enzyme. An unexpected result was that enzymatic activity with MCPA as a substrate was roughly 6-fold greater for MON-HT1, and approximately 10-fold greater for MON-HT13, MON-HT15, and MON-HT17 compared to the wild-type RdpA enzyme.

[4] = test system: transgenic soybean plants; experiment: R0 soybean 2,4-D spray test of 2,4-D optimized variants; type: in vivo; details: for tolerance to 2,4-D treatment: 2× application rate, soy
Text: An additional five engineered proteins optimized for activity for 2,4-D were then selected for analysis in transgenic soybean. DNA constructs were produced for expressing MON-HT13 (SEQ ID NO:47), MON-HT14 (SEQ ID NO:48), MON-HT15 (SEQ ID NO:49), MON-HT17 (SEQ ID NO:51), and MON-HT18 (SEQ ID NO:52) with codon usage optimized for dicot expression. The operably linked expression elements (promoter, leader, intron, CTP, and 3′UTR) were identical in all of the constructs. Leaf samples were taken from R0 plantlets and single copy plants were identified using a PCR-based assay. When the single-copy R0 plants had approximately two to three trifoliate leaves, they were treated with either 1.5 lb ae/acre (2×) or 3.0 lb ae/acre (4×) of 2,4-D. Seven days after herbicide application, the plants were scored for herbicide injury based on the percent area of the plant showing injury, as indicated above.

[5] = 23° C., read-out: Km Quizalofop
[6] = 2,4-D rate 2X (1.5 lb ae/acre), single copy R0 soy, seven days after application

B1: MON-HT13: engineered oxygenase protein, amino acid sequence SEQ ID NO:47 (protein)
chain: MHAALTPLTNKYRFIDVQPLTGVLGAEITGVDLREPLDDSTWNEILDAFHTYQVIYFPGQAITNEQHIAFSRRFGPVDPVPILKSIEGYPEVQMIRREANESSRYIGDDWHADSTFLDAPPAAVVMRAIEVPEYGGDTGFLSMYSAWETLSPTMQATIEGLNVVHSATKVFGSLYQATNWRFSGTSVKVMDVDAGDRETVHPLVVTHPVTGRRALYCNQVYCQKIQGMTDAESKSLLQFLYEHATQFDFTCRVRWKKDQVLVWDNLCTMHRAVPDYAGKFRYLTRTTVAGDKPSR
For B1, the “enzymatic activity with quizalofop compared with MON-HT1” value [1] was “roughly similar to the activity of MON-HT1”, the “Vmax 2,4-D” value [1] was 3.38 (0.05) umol herbicide product mg enzyme-1 min-1 and the Km ([1]; read-out: Km 2,4-D) was 80 µM. For the same molecule, the “Vmax Quizalofop” value ([1]; 23° C.) was 1.51 (0.05) umol herbicide product mg enzyme-1 min-1, the Km [1, 5] was 120 µM and the “Melting temp, Buffer” value [2] was 57 °C. The “Melting temp, Buffer plus Fe2+ and aKG” value [2] was 62 °C, the “activity with MCPB as the substrate” value [3] was “no detectable activity” and the “enzymatic activity with MCPA greater compared to the wild-type RdpA enzyme” value [3] was “approximately 10 fold”. For the same molecule, the “activity with fluroxypyr as the substrate” value (from here on “activity with fluroxypyr”) [3] was “detectable activity”, the “activity with triclopyr as the substrate” value [3] was “detectable activity” and the “MCPA Km” value [3] was 68%. The “MCPA Vmax” value [3] was 1800%, the “Mecoprop Km” value [3] was 92% and the “Events with 20-50% injury” value [4, 6] was 1. The “Events with <20% injury” value [4, 6] was 12 and the “tolerance to 2,4-D treatment” value [4] was “excellent tolerance”.

B2: MON-HT17: engineered oxygenase protein, amino acid sequence SEQ ID NO:51 (protein)
chain: B1 chain with G184N
With B2 the “enzymatic activity with quizalofop compared with MON-HT1” value [1] was “roughly similar to the activity of MON-HT1”, the “Vmax 2,4-D” value [1] was 2.91 (0.04) umol herbicide product mg enzyme-1 min-1 and the Km ([1]; read-out: Km 2,4-D) was 70 µM. For the same molecule, the “Vmax Quizalofop” value ([1]; 23° C.) was 1.53 (0.05) umol herbicide product mg enzyme-1 min-1, the Km [1, 5] was 140 µM and the “Melting temp, Buffer” value [2] was 57 °C. The “Melting temp, Buffer plus Fe2+ and aKG” value [2] was 61 °C, the “activity with MCPB as the substrate” value [3] was “no detectable activity” and the “enzymatic activity with MCPA greater compared to the wild-type RdpA enzyme” value [3] was “approximately 10 fold”. For the same molecule, the “activity with fluroxypyr” value [3] was “detectable activity”, the “activity with triclopyr as the substrate” value [3] was “detectable activity” and the “MCPA Km” value [3] was 62%. For the same molecule, the “MCPA Vmax” value [3] was 1400%, the “Mecoprop Km” value [3] was 65% and the “Events with <20% injury” value [4, 6] was 12. For the same molecule, the “tolerance to 2,4-D treatment” value [4] was “excellent tolerance”.

B3: MON-HT15: engineered oxygenase protein, amino acid sequence SEQ ID NO:49 (protein)
chain: B1 chain with F14H, T153A, G184N, V220I
In the case of B3, the “enzymatic activity with quizalofop compared with MON-HT1” value [1] is reported as “roughly similar to the activity of MON-HT1”, the “Vmax 2,4-D” value [1] is reported as 3.53 (0.04) umol herbicide product mg enzyme-1 min-1 and the Km ([1]; read-out: Km 2,4-D) is reported as 70 µM. For the same molecule, the “Vmax Quizalofop” value ([1]; 23° C.) was 1.52 (0.06) umol herbicide product mg enzyme-1 min-1, the Km [1, 5] was 120 µM and the “Melting temp, Buffer” value [2] was 55 °C. For the same molecule, the “Melting temp, Buffer plus Fe2+ and aKG” value [2] was 60 °C, the “activity with MCPB as the substrate” value [3] was “no detectable activity” and the “enzymatic activity with MCPA greater compared to the wild-type RdpA enzyme” value [3] was “approximately 10 fold”. For the same molecule, the “activity with fluroxypyr” value [3] was “detectable activity”, the “activity with triclopyr as the substrate” value [3] was “detectable activity” and the “MCPA Km” value [3] was 59%. For the same molecule, the “MCPA Vmax” value [3] was 1300%, the “Mecoprop Km” value [3] was 57% and the “Events with <20% injury” value [4, 6] was 5. For the same molecule, the “tolerance to 2,4-D treatment” value [4] was “excellent tolerance”.
